Measurements taken from article PMC3302164 (Science Signaling, 2010).

Target: HA-PP2cA, expressed in HEK 293 cells (UniProt P67775 1-309)
Test: co-IP

Sequence of HA-PP2cA, expressed in HEK 293 cells (P67775 whole entry): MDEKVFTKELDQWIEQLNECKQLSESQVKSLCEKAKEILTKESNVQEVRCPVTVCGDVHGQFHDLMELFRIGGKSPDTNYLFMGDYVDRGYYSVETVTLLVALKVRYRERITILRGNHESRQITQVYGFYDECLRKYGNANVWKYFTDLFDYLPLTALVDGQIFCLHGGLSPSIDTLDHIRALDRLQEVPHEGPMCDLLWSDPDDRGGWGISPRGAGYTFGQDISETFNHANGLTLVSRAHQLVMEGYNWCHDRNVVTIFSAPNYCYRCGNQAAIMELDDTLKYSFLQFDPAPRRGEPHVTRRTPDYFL

- extent of interaction relative to that with PP1α, after doxorubicin: ~53%
B1: FLAG-KAP1 (wild type), expressed in HEK 293 cells (natural protein, human, UniProt Q13263 1-835, looked up)
chain: MAASAAAASAAAASAASGSPGPGEGSAGGEKRSTAPSAAASASASAAASSPAGGGAEALELLEHCGVCRERLRPEREPRLLPCLHSACSACLGPAAPAAANSSGDGGAAGDGTVVDCPVCKQQCFSKDIVENYFMRDSGSKAATDAQDANQCCTSCEDNAPATSYCVECSEPLCETCVEAHQRVKYTKDHTVRSTGPAKSRDGERTVYCNVHKHEPLVLFCESCDTLTCRDCQLNAHKDHQYQFLEDAVRNQRKLLASLVKRLGDKHATLQKSTKEVRSSIRQVSDVQKRVQVDVKMAILQIMKELNKRGRVLVNDAQKVTEGQQERLERQHWTMTKIQKHQEHILRFASWALESDNNTALLLSKKLIYFQLHRALKMIVDPVEPHGEMKFQWDLNAWTKSAEAFGKIVAERPGTNSTGPAPMAPPRAPGPLSKQGSGSSQPMEVQEGYGFGSGDDPYSSAEPHVSGVKRSRSGEGEVSGLMRKVPRVSLERLDLDLTADSQPPVFKVFPGSTTEDYNLIVIERGAAAAATGQPGTAPAGTPGAPPLAGMAIVKEEETEAAIGAPPTATEGPETKPVLMALAEGPGAEGPRLASPSGSTSSGLEVVAPEGTSAPGGGPGTLDDSATICRVCQKPGDLVMCNQCEFCFHLDCHLPALQDVPGEEWSCSLCHVLPDLKEEDGSLSLDGADSTGVVAKLSPANQRKCERVLLALFCHEPCRPLHQLATDSTFSLDQPGGTLDLTLIRARLQEKLSPPYSSPQEFAQDVGRMFKQFNKLTEDKADVQSIIGLQRFFETRMNEAFGDTKFSAVLVEPPPMSLPGAGLSSQELSGGPGDGP
